This is an account of results in publication PMC5241800, “A RuBisCO-mediated carbon metabolic pathway in methanogenic archaea” (Nature Communications, 2017).

For data set [1], the target named is Methanospirillum hungatei phosphoribulokinase (MhPRK) (Methanospirillum hungatei). In words: crystal structure; hanging-drop vapour diffusion at 20 °C; 2.5 Å; the asymmetric unit holds two MhPRK protomers (chains A and B) related by approximately two-fold noncrystallographic symmetry.
Data set [2] has as its target T1, M. hungatei RuBisCO (Mh-RuBisCO) (Methanospirillum hungatei, UniProt Q2FSY4).
T1 construct: gene rbcL; recombinant in E. coli C43 (DE3), pET-15b, His6 tag cleaved by thrombin
Description: coupled PGK / GAPDH carboxylase assay, NADH at […] nm; turnover only. It counts as biochemical. The conditions noted are these: 2 mM RuBP, 50 mM NaHCO3, 20 mM MgCl2, pH 8.0, 25 °C, anaerobic.

Substrate in data set [3]: Nc1ncnc2c1ncn2[C@@H]1O[C@H](COP(=O)(O)OP(=O)(O)OP(=O)(O)O)[C@@H](O)[C@H]1O
In words: purified protein. It counts as biochemical, Methanospirillum hungatei. The conditions noted are these: co-substrate Ru5P (2 mM), 10 mM MgCl2, 100 mM KCl, pH 8.0, 25 °C.

Substrate in data set [4]: O=C(CO)[C@H](O)[C@H](O)COP(=O)(O)O
Description: purified protein. It counts as biochemical, Methanospirillum hungatei. The conditions noted are these: co-substrate ATP (2 mM), 10 mM MgCl2, 100 mM KCl, pH 8.0, 25 °C.

Substrate in data set [5]: Nc1ncnc2c1ncn2[C@@H]1O[C@H](COP(=O)(O)OP(=O)(O)OP(=O)(O)O)[C@@H](O)[C@H]1O
In words: purified protein. It counts as biochemical, Methanothrix soehngenii. The conditions noted are these: co-substrate Ru5P (2 mM), 10 mM MgCl2, 100 mM KCl, pH 8.0, 25 °C.

Substrate in data set [6]: O=C(CO)[C@H](O)[C@H](O)COP(=O)(O)O
Description: purified protein. The conditions noted are these: co-substrate ATP (2 mM), 10 mM MgCl2, 100 mM KCl, pH 8.0, 25 °C. It counts as biochemical, Methanothrix soehngenii.

Substrate in data set [7]: Nc1ncnc2c1ncn2[C@@H]1O[C@H](COP(=O)(O)OP(=O)(O)OP(=O)(O)O)[C@@H](O)[C@H]1O
Description: purified protein. The data set is classed as biochemical, Methanothrix thermoacetophila. The conditions noted are these: co-substrate Ru5P (2 mM), 10 mM MgCl2, 100 mM KCl, pH 8.0, 25 °C.

Substrate in data set [8]: O=C(CO)[C@H](O)[C@H](O)COP(=O)(O)O
In words: purified protein. The conditions noted are these: co-substrate ATP (2 mM), 10 mM MgCl2, 100 mM KCl, pH 8.0, 25 °C. It counts as biochemical, Methanothrix thermoacetophila.

T1 sequence (Q2FSY4 entry or part of it): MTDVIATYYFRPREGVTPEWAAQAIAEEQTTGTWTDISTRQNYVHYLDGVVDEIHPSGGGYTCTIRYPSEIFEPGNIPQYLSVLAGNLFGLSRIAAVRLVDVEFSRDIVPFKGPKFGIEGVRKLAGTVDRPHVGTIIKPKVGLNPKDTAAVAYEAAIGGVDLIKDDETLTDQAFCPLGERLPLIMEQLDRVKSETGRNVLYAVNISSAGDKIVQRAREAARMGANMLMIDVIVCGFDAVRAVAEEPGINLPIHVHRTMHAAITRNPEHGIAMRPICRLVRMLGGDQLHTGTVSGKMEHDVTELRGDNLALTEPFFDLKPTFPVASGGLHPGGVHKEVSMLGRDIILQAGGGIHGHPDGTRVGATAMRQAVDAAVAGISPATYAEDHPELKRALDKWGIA

As a reminder, the stoichiometry N is a count of units in the complex or per binding partner. For “Methanospirillum hungatei phosphoribulokinase (MhPRK) (enzyme)”, the stoichiometry N in data set [1] was 2.

In the case of `O=C(COP(=O)(O)O)[C@H](O)[C@H](O)COP(=O)(O)O` [RuBP], in data set [2], the “coupled PGK / GAPDH carboxylase assay, NADH at 340 nm; turnover only” value was “M. hungatei RuBisCO was found to have a specific activity for the carboxylase reaction”.

B1: MhPRK (M. hungatei PRK homologue) (Methanospirillum hungatei JF-1) (protein)
chain: MSQPENFREVIRHSPLVYLIGVAGDSGSGKSTFTRAISDIFGEELVSSITVDDYHLYDRKTRSEMGITPLLHTANNLKLLEENLMDLKAGRTIQKPVYLHDHGTFGEPELFSPTKFIIIEGLHPYATKSLRALYDYTIFVDPERDVKYDWKIRRDMKKRNYDKNEVLREILQREPDYFQYVFPQREVADAVIQISYSSYGKEEGEKRNVYRVMLSMPAQEYCFEDIELNIDLCDLFKKSSHDFSLSCISHTPDSRNMRALVVDGELMPDTIHKIERQIEFQTGISPINIFRGQEHITGTDLVRLILSWQIINGRIALSNHLDQ
notes: recombinant in E. coli C43 (DE3), pET-15b, His6 tag cleaved by thrombin; homodimer; residues up to 323
In general, Km refers to the concentration of substrate that gives half-maximal velocity. B1: the figures for the Km in “purified protein [3]” and in the data set “purified protein [4]” were 20.70 ± 1.70 µM and 280 ± 50 µM, respectively.

B2: Methanosaeta concilii PRK homologue (Mcprk) (Methanothrix soehngenii GP6) (protein)
chain: MRSLKDRIRESGRVFVFGIAGDSGSGKTTISRGIRRILGEDMVATFSMDDYHSLDRRQRKERNITPLHPDANQFDLLAEHLEALRRNERIDKPVYDHRTGEISGTVPFGPAPVIIVEGLHPLYTERLRSQIDFKIFVDPSRSVKRLWKIRRDVGERGYETGQVMAEILQREPDYKLYVDIQKIYAQIVIKIQDSRFHPSLLDSQSTLDWYSVRLIMEIMEHPVSEVSMNIDLSKILRRSEHEFSIEFQRDDYYGKRVGIMTMDGEIHQSMISDLEKKLGESLGTDGMISDRREEYVNAIGLAQLILTWNCVEKLDYLLQEEGY
notes: recombinant in E. coli C43 (DE3), pET15b, His6 tag, purified as MhPRK (thrombin-cleaved)
Turning to B2, the Km in “purified protein [5]” was found to be 17.91 ± 2.02 µM; in “purified protein [6]” it was 310 ± 80 µM.

B3: Methanosaeta thermophila PRK homologue (Mtprk) (Methanothrix thermoacetophila PT) (protein)
chain: MRLLEKIRESGRVFVVAVAGDSGSGKTTFTRGIRRLLGEDVVSTFSMDDYHSLDRRQRKTLGITPLRPEANRFDLLAEHLAMLRRGLAIEKPVYDHTTGEIRGPVIFKPSPVIIVEGLHPFYTEELRKLSDFKIFVDPSRAVKRRWKLRRDVGERGYAPEDVMREILEREPDYKLYVDVQKVYAEMVIKIQDSRIPPEWTEIARGSAREKYSVRIIQQILDHPLDEVDLTIDLSRIMRLTEREFSIEFQRDDYYGKRVGVMTLDGEFPLTMIKDLERKLCDFLGRDVPSVTEGCQEDHGSYVNATEMTQLILIWRFLEKIANLAW
notes: as for B2
Consider B3, for which the Km in the data set “purified protein [7]” is 5.66 ± 0.21 µM; in “purified protein [8]” it was 230 ± 50 µM.
